{
  "source": "paper PMC9894130",
  "about": "“SV40 T-antigen uses a DNA shearing mechanism to initiate origin unwinding” (Proceedings of the National Academy of Sciences of the …, 2022)",
  "proteins": {"B1": {"name": "SV40 large T-Antigen helicase, residues 131-627 (T-Ag^131–627) (domain or fragment)", "chain": "KVEDPKDFPSELLSFLSHAVFSNRTLACFAIYTTKEKAALLYKKIMEKYSVTFISRHNSYNHNILFFLTPHRHRVSAINNYAQKLCTFSFLICKGVNKEYLMYSALTRDPFSVIEESLPGGLKEHDFNPEEAEETKQVSWKLVTEYAMETKCDDVLLLLGMYLEFQYSFEMCLKCIKKEQPSHYKYHEKHYANAAIFADSKNQKTICQQAVDTVLAKKRVDSLQLTREQMLTNRFNDLLDRMDIMFGSTGSADIEEWMAGVAWLHCLLPKMDSVVYDFLKCMVYNIPKKRYWLFKGPIDSGKTTLAAALLELCGGKALNVNLPLDRLNFELGVAIDQFLVVFEDVKGTGGESRDLPSGQGINNLDNLRDYLDGSVKVNLEKKHLNKRTQIFPPGIVTMNEYSVPKTLQARFVKQIDFRPKDYLKHCLERSEFLLEKRIIQSGIALLLMLIWYRPVAEFAQSIQSRIVEWKERLDKEFSLSVYQKMKFNVAMGIGVLD", "notes": "Simian Virus 40 large T-Antigen, residues 131-627; lacks the N-terminal DnaJ-homology domain and the extreme C-terminal host-range determination region; holds OBD, ZBD and AAA+ domains; also called J-domain truncated T-Ag; source: expressed in E. coli (details in the SI Appendix)"}},
  "target": "the molecule itself",
  "assay": "cryo-EM structure; T-Ag^131–627 incubated with AMP-PNP in the absence of DNA (apo form); 3D map at 5.6 Å, rigid-body docking of crystal structures of smaller fragments",
  "data": [
    {"protein": "B1", "values": [
      {"measurement": "stoichiometry N", "result": 6}
    ]}
  ]
}
